Assay results published in article PMC11480844.

B1: H2-Kb / E8 (parent)
chain 1: GDSVTQTEGLVTVTEGLPVKLNCTYQTTYLTIAFFWYVQYLNEAPQVLLKSSTDNKRTEHQGFHATLHKSSSSFHLQKSSAQLSDSALYYCALNTNTGKLTFGDGTVLTVKP
chain 2: EAAVTQSPRNKVAVTGGKVTLSCNQTNNHNNMYWYRQDTGHGLRLIHYSYGAGSTEKGDIPDGYKASRPSQENFSLILELATPSQTSVYFCASGDWGAGTGQLYFGEGSKLTVL
chain 3: not shown
chain 4: IQKTPQIQVYSRHPPENGKPNILNCYVTQFHPPHIEIQMLKNGKKIPKVEMSDMSFSKDWSFYILAHTEFTPTETDTYACRVKHDSMAEPKTVYWDRDM
chain 5: SIINFEKL
B2: H2-Kb / F5 (parent)
chain 1: GDSVTQTEGLVTLTEGLPVMLNCTYQSTYSPFLFWYVQHLNEAPKLLLKSFTDNKRPEHQGFHATLHKSSSSFHLQKSSAQLSDSALYYCALSPSNMGYKLTFGTGTSLLVDP
chain 2: EAAVTQSPRNKVAVTGGKVTLSCNQTNNHNNMYWYRQDTGHGLRLIHYSYGAGSTEKGDIPDGYKASRPSQENFSLILELATPSQTSVYFCASGDASEQYFGPGTRLTVL
chain 3: not shown
chain 4: B1 chain 4
chain 5: SIINFEKL
B3: H2-Kb / B5 (parent)
chain 1: TQTVSQSDAHVTVFEGDSVELRCNYSYGGSIYLSWYIQHHGHGLQFLLKYYSGNPVVQGVNGFEAEFSKSDSSFHLRKASVHWSDSAVYFCAVSLYQGGRALIFGTGTTVSVSP
chain 2: EAGVTQSPRYAVLQEGQAVSFWCDPISGHDTLYWYQQPRDQGPQLLVYFRDEAVIDNSQLPSDRFSAVRPKGTNSTLKIQSAKQGDTATYLCASSFAGGARAEQFFGPGTRLTVL
chain 3: not shown
chain 4: B1 chain 4
chain 5: SIINFEKL

Variants of: B1
Test: % of reporter cells activated (NFAT-GFP), raw
Details: with E8; scale: % of reporter cells activated
Further: test concentration or dose not given here.

Ratio to parent: each site, then its substitutions
chain 5 I2: R 0.251; S 1.54; V 2.6; A 1.19; M 0.834; F 0.604; G 0.418; T 2.56; P 1.66; Y 0.205; H 0.943; W 3.66; N 0.771; E 0.694; Q 0.307; C 1.31; D 1.78; L 2.58; K 0.571
chain 5 N4: D 0.0157; S 0.0377; M 0.0197; K 0.0265; A 0.402; T 0.394; R 0.0317; Q 0.0151; Y 0.0136; P 2.41; C 0.0617; E 0.0223; V 0.637; H 0.0899; L 0.0142; I 0.11; F 0.0343; G 0.104; W 1.86
chain 5 L8: W 0.344; I 0.998; V 0.473; C 0.214; G 0.949; S 0.214; A 0.534; T 0.444; Y 1.23; R 0.331; P 0.187; H 0.898; M 0.838; N 0.755; E 0.264; F 0.826; D 0.154; K 0.228; Q 0.38
chain 5 I3: V 0.61; R 0.605; L 1.93; Y 3.36; D 0.0231; W 1.9; Q 0.475; K 0.147; S 2.66; G 0.241; N 0.231; E 0.331; A 0.244; T 0.273; F 2.52; P 0.735; H 1.57; M 1.45; C 0.982
chain 5 F5: R 0.77; P 1.03; V 3.19; T 0.892; M 1.04; Y 1.09; S 1.09; W 2.35; Q 0.682; N 1.13
chain 5 K7: D 0.288; P 0.0848; W 0.235; H 0.14; A 0.522; C 0.196; Q 0.256; F 0.14; G 0.377; S 0.491; V 0.175; Y 0.121; M 0.239; N 0.18; T 0.223; I 0.132; E 0.415; L 0.119; R 1.06
chain 5 S1: F 0.0608; C 0.0291; N 0.0146; H 0.0497; Q 0.0368; Y 0.0177; M 0.0169; K 0.00805; R 0.0279; W 0.0202; L 0.0264; P 0.0215; A 0.897; D 1.87; G 0.205; I 0.0565; E 0.252; T 0.0377; V 0.0822

Variants of: B2
Test: % of reporter cells activated (NFAT-GFP), raw
Details: with F5; scale: % of reporter cells activated

Ratio to parent of substitutions, site by site:
chain 5 I2: S 0.483; H 0.378; W 1.57; Y 0.393; R 0.273; D 0.652; F 0.577; K 0.397; C 0.779; T 1.03; M 1.58; E 0.558; V 1.23; A 0.603; G 0.989; L 3.22; Q 0.472; P 0.419; N 0.903
chain 5 E6: K 0.337; M 0.221; L 0.341; G 0.281; T 0.36; S 0.303; P 0.21; C 0.303; H 0.27; W 0.318; N 0.296; Q 0.288; D 0.371; F 0.292; I 0.21; A 0.318; V 0.232; Y 0.296; R 0.453
chain 5 F5: W 1.55; G 0.296; H 0.659; R 0.318; E 0.315; C 1.48; V 1.15; N 0.655; M 1.51; T 1.2; S 1.09; I 0.607; A 0.921; Q 1.76; L 0.79; K 0.247; D 0.273; Y 0.502; P 4.99
chain 5 I3: A 0.386

Variants of: B3
Test: % of reporter cells activated (NFAT-GFP), raw
Details: with B5; scale: % of reporter cells activated

Ratio to parent, by site and new letter:
chain 5 F5: T 0.653; C 1.92; L 0.958; G 0.569; Y 1.29; P 1.04; Q 1.14; E 0.472; R 1; W 0.694; I 0.597; S 0.806; V 3.75; A 0.611; K 1.06; M 1.01; H 0.556; N 1.36; D 1.28
chain 5 K7: V 1.19; F 0.806; N 1.21; H 1.29; M 1.57; P 0.889; R 0.833; L 1.28; W 1.19; Y 1.38; G 0.917; D 1.11; I 1.4; A 1.19; Q 1.01; C 1.14; T 1.17; S 0.944; E 1.31
chain 5 S1: P 0.917; Y 0.75; W 1.65; N 1.24; M 1.22; L 0.764; F 1.22; A 1.43; T 0.986; K 0.764; G 0.889; R 1.14; H 1.11; V 1.39; C 0.875; D 1.54; E 0.889; Q 1.08; I 1.14
chain 5 E6: N 1.12; R 0.806; P 1.11; K 1.17; W 1.12; F 1.54; M 0.903; D 1; H 1.03; Y 1.44; Q 1.24; C 1.38; I 1.36; A 0.708; G 1.01; T 1.17; L 1.4; S 1.03; V 0.75
chain 5 L8: H 1.21; Q 1.86; K 0.903; M 1.61; R 1.78; Y 0.958; S 1.19; G 0.972; V 1.35; E 1.42; P 1.15; I 1.06; N 1.49; W 1.47; D 1.33; T 1.04; A 1.54; F 1.53; C 1.4
chain 5 I3: V 1.1; E 1.17; T 0.764; M 0.972; W 7.01; Y 0.917; N 0.917; C 0.792; R 1.03; K 1.11; D 1; L 0.847; G 0.917; S 1.54; H 1.01; Q 0.792; P 1.08; A 1.01; F 0.958
chain 5 N4: M 0.75; K 1.07; W 0.931; T 0.514; F 8.53; Q 1.71; G 1.33; V 0.389; S 0.597; R 0.556; C 0.625; L 1.08; A 0.931; Y 1; I 0.5; P 0.917; H 0.556; E 0.778; D 1.08
chain 5 I2: S 0.694; C 0.694; K 0.889; M 1.58; G 1.13; E 1.1; V 0.375; A 0.736; N 1.36; T 0.542; P 1.12; W 1.51; F 0.875; R 0.819; H 0.792; L 1.17; D 1.18; Y 1.01; Q 1.11
